B1: Const. No. 94: hCFI-PD (wild type plasma-derived human CFI) (enzyme)
chain: KVTYTSQEDLVEKKCLAKKYTHLSCDKVFCQPWQRCIEGTCVCKLPYQCPKNGTAVCATNRRSFPTYCQQKSLECLHPGTKFLNNGTCTAEGKFSVSLKHGNTDSEGIVEVKLVDQDKTMFICKSSWSMREANVACLDLGFQQGADTQRRFKLSDLSINSTECLHVHCRGLETSLAECTFTKRRTMGYQDFADVVCYTQKADSPMDDFFQCVNGKYISQMKACDGINDCGDQSDELCCKACQGKGFHCKSGVCIPSQYQCNGEVDCITGEDEVGCAGFASVTQEETEILTADMDAERRRIKSLLPKLSCGVKNRMHIRRKRIVGGKRAQLGDLPWQVAIKDASGITCGGIYIGGCWILTAAHCLRASKTHRYQIWTTVVDWIHPDLKRIVIEYVDRIIFHENYNAGTYQNDIALIEMKKDGNKKDCELPRSIPACVPWSPYLFQPNDTCIVSGWGREKDNERVFSLQWGEVKLISNCSKFYGNRFYEKEMECAGTYDGSIDACKGDSGGPLVCMDANNVTYVWGVVSWGENCGKPEFPGVYTKVANYFDWISYHVGRPFISQYNV
B2: Const. No. 96: hCFI (wt hCFI, no signal sequence, no HSA) (enzyme)
chain: B1 chain

Molecular target: soluble human C3b (human, UniProt P01024 23-1663, limits assumed)
Sequence (P01024 23-1663 limits assumed): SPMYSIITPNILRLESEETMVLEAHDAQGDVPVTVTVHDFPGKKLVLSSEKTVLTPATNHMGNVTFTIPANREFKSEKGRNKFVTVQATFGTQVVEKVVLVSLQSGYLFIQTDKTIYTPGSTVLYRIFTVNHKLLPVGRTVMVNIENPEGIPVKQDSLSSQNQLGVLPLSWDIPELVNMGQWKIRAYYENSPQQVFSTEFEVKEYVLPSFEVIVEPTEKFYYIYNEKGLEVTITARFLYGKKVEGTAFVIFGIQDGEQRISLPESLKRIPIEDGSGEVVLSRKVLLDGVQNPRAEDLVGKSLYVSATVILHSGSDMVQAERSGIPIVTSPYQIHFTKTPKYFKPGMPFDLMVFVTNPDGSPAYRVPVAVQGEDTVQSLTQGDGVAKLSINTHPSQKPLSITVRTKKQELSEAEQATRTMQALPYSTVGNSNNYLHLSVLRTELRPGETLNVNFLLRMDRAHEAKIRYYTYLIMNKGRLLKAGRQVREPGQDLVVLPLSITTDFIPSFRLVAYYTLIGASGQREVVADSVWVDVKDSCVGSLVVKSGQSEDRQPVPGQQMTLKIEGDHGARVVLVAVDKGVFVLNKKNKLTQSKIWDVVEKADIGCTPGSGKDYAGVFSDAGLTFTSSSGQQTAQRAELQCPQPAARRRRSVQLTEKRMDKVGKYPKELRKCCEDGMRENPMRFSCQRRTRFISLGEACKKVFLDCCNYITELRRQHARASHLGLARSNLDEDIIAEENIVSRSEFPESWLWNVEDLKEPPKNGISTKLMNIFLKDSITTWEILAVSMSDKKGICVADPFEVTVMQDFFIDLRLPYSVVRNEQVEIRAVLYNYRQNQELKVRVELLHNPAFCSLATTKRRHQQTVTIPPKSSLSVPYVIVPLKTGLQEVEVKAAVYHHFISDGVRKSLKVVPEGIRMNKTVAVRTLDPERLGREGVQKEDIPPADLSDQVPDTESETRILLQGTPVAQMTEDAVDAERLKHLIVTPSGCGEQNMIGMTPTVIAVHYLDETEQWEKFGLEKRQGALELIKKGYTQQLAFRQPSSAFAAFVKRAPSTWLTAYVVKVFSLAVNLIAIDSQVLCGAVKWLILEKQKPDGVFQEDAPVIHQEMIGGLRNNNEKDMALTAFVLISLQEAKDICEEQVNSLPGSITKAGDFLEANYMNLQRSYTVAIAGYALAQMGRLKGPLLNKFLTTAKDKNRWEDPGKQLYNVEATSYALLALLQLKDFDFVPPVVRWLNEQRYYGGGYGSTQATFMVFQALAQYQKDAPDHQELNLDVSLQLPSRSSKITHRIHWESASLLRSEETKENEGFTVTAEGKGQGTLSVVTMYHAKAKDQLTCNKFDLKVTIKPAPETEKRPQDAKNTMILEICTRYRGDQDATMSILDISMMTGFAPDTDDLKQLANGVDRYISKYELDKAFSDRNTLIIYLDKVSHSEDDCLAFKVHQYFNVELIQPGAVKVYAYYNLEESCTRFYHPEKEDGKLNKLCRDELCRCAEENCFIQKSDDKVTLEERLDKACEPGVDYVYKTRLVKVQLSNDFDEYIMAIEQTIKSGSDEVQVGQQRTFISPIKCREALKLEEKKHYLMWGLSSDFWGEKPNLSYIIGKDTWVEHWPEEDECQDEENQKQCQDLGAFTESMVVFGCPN
Experiment: cell-based or functional assay

iC3b EC50 [nM]	Binder
50.1	B1
62.4	B2
